Patent US20220403048A1, “BINDING MOLECULES TO ARGINASE II [ARG2]” (Cancer Research Technology Limited, priority 2019, published 2022)
Values belong to the molecule of their own block, whether it stands above or below them.

Tests used:
[1] = target: T1, ARG2 (Homo sapiens, UniProt P78540); experiment: Isothermal titration calorimetry of BEC with ARG2 and ARG2-C0021158 fab complex; assay type: binding; design: human ARG2 (aa23-354); His10 (C); made in house; host or cells: E. coli BL21 (DE3); conditions: 20 μM ARG2 and 20 μM C0021158 fab, 0.50 mM BEC titrated, 25° C.
T1 sequence (P78540 23-354): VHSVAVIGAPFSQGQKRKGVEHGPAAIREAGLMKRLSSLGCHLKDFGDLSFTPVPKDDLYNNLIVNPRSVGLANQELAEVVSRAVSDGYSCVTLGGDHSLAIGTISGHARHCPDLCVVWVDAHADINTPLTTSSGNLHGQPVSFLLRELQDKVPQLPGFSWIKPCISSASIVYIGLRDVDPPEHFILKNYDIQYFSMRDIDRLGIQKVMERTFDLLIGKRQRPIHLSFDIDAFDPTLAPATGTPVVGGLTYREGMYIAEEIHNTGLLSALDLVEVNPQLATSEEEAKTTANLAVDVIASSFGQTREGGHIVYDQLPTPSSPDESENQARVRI
Experimental: To assess the accessibility of the ARG2 active site, we analysed binding of the ARG2 small-molecule inhibitor S-(2-Boronoethyl)-L-cysteine hydrochloride (BEC) by isothermal titration calorimetry (ITC) using a VP ITC (MicroCal) set to 25° C. (FIG. 15B). BEC is an arginine analogue that binds to the active site of ARG2. First, volumes of 10 μl of a solution containing 0.75 mM BEC were added to 20 μM of ARG2 (monomer concentration). The resulting thermogram was integrated using NITPIC and the binding isotherm was fitted with SEDPHAT using a one-binding site model. In a second experiment, volumes of 10 μl of 0.50 mM BEC were added to a solution containing a pre-incubated 1:1 molar mixture of C0021158 fab and ARG2 (both 20 μM, incubation 1 h at 20° C.).

[2] = target: T1, ARG2; experiment: Size-exclusion chromatography of ARG2-Fab binding stoichiometry; design: human ARG2 (aa23-354); His10 (C); made in house; host or cells: E. coli BL21 (DE3); conditions: FIG. 23A
Experimental: ARG2 and Fabs were analysed at concentrations of 8 μM (referring to monomers) in SEC buffer containing 25 mM tris at pH 7.4 and 150 mM NaCl. ARG2-Fab complexes were formed by mixing both ARG2 and Fabs at concentrations of 8 μM (referring to monomers) in SEC buffer and incubation on ice for 1 h. For size-exclusion chromatography, […] of sample were injected into a 100 μl loop connected to a Superose 6 Increase 10/300 GL column (GE Healthcare) which was mounted to an AKTAexpress FPLC system (GE Healthcare). The column was equilibrated in SEC buffer, and SEC was performed at a flow rate of 0.5 ml/min. Molecular-weight estimates are based on the retention volumes seen for β-amylase, bovine serum albumin and carbonic anhydrase, which were analysed on the same FPLC system under identical conditions.

[3] = target: T1, ARG2; experiment: T cell proliferation assay (BrdU, 72 hours) with exogenous ARG2; assay type: cell-based; design: human ARG2 (aa23-354); His10 (C); made in house; host or cells: E. coli BL21 (DE3)
Experimental: This assay served to provide in vitro evidence of functional efficacy for each antibody.
Briefly, Leukocyte cones (NHS Blood and Transplant, Watford, UK) underwent Ficoll Plaque (GE, Sweden; Cat: 17-1440-02) gradient separation, PBMC's were extracted and pan T cell population isolated by negative selection using the Human T Cell Enrichment Kit (Stemcell Technologies, France; Cat: 19051) according to the manufacturer's instructions.
40000 cells/well were seeded in complete growth media (RMPI 1640, 5% Human Serum Albumin) into a 96 well clear TC treated microplate (Greiner-Bio One, Germany; Cat: 655180). T Cells were activated by the addition of ImmunoCult CD3/CD28 (Stemcell Technologies, France; Cat: 10971) at a dilution of 1:40 directly into wells and the plate incubated 37° C., 5% CO2 for 45 minutes.
To determine EC50's of test antibodies, a dilution series was created in sterile TBS at 8× the final assay concentration was added to the assay plate containing cells. Plate was incubated for 30 minutes at 37° C., 5% CO2.
ARG2 was added to relevant wells of the plate at a final concentration of 15 μg/ml. The equivalent volume of ARG2 vehicle and test antibody vehicle was added to relevant control wells. […]
Calculated data was expressed as % of control (Equation 3) and graphical plots were constructed using a four parameter fit and EC50's determined using model 205 in XLFit (IDBS, UK). […]

[4] = test system: recombinant cynomolgus monkey trimeric ARG2 enzyme; experiment: Direct binding HTRF assay, cynomolgus trimeric ARG2; conditions: purified scFv, FIG. 1C
Chain of recombinant cynomolgus monkey trimeric ARG2 enzyme (as listed by the source): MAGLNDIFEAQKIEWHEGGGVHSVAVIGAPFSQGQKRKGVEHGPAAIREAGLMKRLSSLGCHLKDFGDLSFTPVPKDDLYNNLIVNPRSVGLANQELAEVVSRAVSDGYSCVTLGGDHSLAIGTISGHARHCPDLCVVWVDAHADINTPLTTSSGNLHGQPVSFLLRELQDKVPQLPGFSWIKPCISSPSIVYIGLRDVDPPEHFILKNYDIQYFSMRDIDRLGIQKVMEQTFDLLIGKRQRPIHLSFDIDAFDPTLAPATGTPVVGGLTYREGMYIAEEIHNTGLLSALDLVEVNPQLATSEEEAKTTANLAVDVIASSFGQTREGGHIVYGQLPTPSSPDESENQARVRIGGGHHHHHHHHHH

- effect on binding of BEC to ARG2 (ITC) [1]: prevents BEC from binding
B1: C0021158 IgG: anti-ARG2 antibody, VH SEQ ID NO: 282, VL SEQ ID NO: 287; IgG and Fab versions carry these sequences (antibody, listed as Homo sapiens, V domains shown)
VH: EVQLLESGGGLVQPGGSLRLSCAASGFTFRYEVAAWVRQAPGKGLEWVSAISGPIPKGYYADSVKGRFTISRDNSKNTLYLQMNSLRAEDTAVYYCARLRADLGLYMDLWGRGTLVTVSS
VL: QSVLTQPPSVSAAPGQKVTISCSGSSSNIGNHYVSWYQQLPGTAPKLLIYDNSERTAGVPDRFSGSKSGTSATLGITGLQTGDEADYYCGTWDELTSNLVFGGGTKLTVL
modifications: C0021158 IgG

- size-exclusion peak of 1:1 molar mixture of ARG2 and Fab ([2]; 8 μM each): 275 kDa
- Fabs bound to one ARG2 trimer ([2]; from size-exclusion profile): three Fabs
B2: C0021139: anti-ARG2 antibody, VH SEQ ID NO: 212, VL SEQ ID NO: 217 (antibody, listed as Homo sapiens, V domains shown)
VH: EVQLLESGGGLVQPGGSLRLSCAASGFTFQYDYQVWVRQAPGKGLEWVSAISGSGGSTYYADSVKGRFTISRDNSKNTLYLQMNSLRAEDTAVYYCARLRADLGLYMDLWGRGTLVTVSS
VL: QSVLTQPPSVSAAPGQKVTISCSGSSSNIGNHYVSWYQQLPGTAPKLLIYDNSERTSGIPDRFSGSKSGTSATLGITGLQTGDEADYYCGTWDELTSNLVFGGGTKLTVL
modifications: C0021139

- EC50 ([3]; In Presence of rhARG2): > 2000 nM
- Maximum % Proliferation ([3]; In Presence of rhARG2, NHLA value at 0.444 mM): 49%
- binding to biotinylated recombinant cynomolgus trimeric ARG2 enzyme [4]: bound
B3: C0020065: anti-ARG2 antibody, alternate lead isolation clone, VH SEQ ID NO: 2, VL SEQ ID NO: 7 (antibody, listed as Homo sapiens, V domains shown)
VH: GVNLRESGGGVVQPGRSLRLSCAASGFTFSSYAMHWVRQAPGKGLEWVAVISYDGSNKYYVDSVKGRFTISRDNSKNTLYLQMNSLRAEDTAVYYCARDSSQLWFDYWGRGTLVTVSS
VL: QSVVTQPPSVSGAPGQRVTISCTGSSSNIGTGYDVHWYQQLPGTAPKLLIYGNSNRPSGVPDRFSGSKSGTSASLAITGLQAEDEADYYCQSYDSSLSGSVVFGGGTQLTVL
modifications: C0020065
